This test has as its target Kv1.3 voltage-gated potassium channel on T cells in human whole blood (human) (UniProt P22001). The test can be described thus: cell-based or functional assay.

Kv1.3 voltage-gated potassium channel on T cells in human whole blood (human), sequence (P22001 whole entry): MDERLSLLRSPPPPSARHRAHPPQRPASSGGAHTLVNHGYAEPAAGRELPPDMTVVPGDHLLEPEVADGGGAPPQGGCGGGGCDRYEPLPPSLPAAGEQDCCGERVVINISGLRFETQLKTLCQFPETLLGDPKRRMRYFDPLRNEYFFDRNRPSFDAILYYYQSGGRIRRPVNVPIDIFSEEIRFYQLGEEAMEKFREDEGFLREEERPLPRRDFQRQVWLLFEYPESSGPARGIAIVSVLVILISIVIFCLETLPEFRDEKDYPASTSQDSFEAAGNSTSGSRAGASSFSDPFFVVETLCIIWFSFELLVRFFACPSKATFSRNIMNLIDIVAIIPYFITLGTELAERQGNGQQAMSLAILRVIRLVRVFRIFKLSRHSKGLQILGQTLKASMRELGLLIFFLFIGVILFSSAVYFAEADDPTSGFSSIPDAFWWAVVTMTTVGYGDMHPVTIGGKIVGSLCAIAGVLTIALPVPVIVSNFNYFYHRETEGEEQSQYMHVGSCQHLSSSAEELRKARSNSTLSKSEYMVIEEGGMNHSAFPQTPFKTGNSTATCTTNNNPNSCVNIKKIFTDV

Take ShK(1-35) (peptide): the Potency Relative to ShK (WB, IL2) amounted to 1 fold; the WB (IFNg) IC50 came out at 0.078 nM; the WB (IL-2) IC50 is 0.067 nM.
The substance “Monovalent Fc/Fc-L10-ShK[2-35] heterodimer (Fc fusion)” came in with a Potency Relative to ShK (WB, IL2) of 32.1 fold; a WB (IFNg) IC50 of 5.2 nM; a WB (IL-2) IC50 of 2.15 nM.
With 20 kDa-PEG-ShK (peptide), the Potency Relative to ShK (WB, IL2) came out at 5.67 fold; the WB (IFNg) IC50 was 0.84 nM; the WB (IL-2) IC50 was determined as 0.38 nM.

For the origin of these results see patent publication US20130189283A1.
